This note sets out measurements from the supplement of paper PMC9428881.

The series is described as follows: background-corrected fluorescence of 3'-dye-labeled ssDNA relative to brightest sequence (3'-GCGCG) (fraction); higher = brighter dye fluorescence (less quenching). In a few lines: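 Each of 1024 permuted pentamers was synthesized as single-stranded DNA on glass slides by light-directed phosphoramidite chemistry, with a 3' Cy3 or Cy5 dye alongside. Arrays were scanned at 532 or 635 nm before and after overnight deprotection with ethylenediamine/ethanol. Values average 10 features per array across at least 3 syntheses. The fluorescence readout, with unlabeled-oligo background removed, is given relative to the brightest sequence.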

± gives the standard error.

Consider “TTTTTTCATGATGATGCTGATTTTTTTTTTTTTTTGCCAC [CACCG]”, for which the background-corrected fluorescence runs as follows: (dye: Cy3 (3' terminal)) 0.393 ± 0.022; (dye: Cy5 (3' terminal)) 0.299 ± 0.015.
“TTTTTTCATGATGATGCTGCTTTTTTTTTTTTTTTGCCAA [AACCG]” yielded a background-corrected fluorescence (dye: Cy3 (3' terminal)) of 0.504 ± 0.034 and a background-corrected fluorescence (dye: Cy5 (3' terminal)) of 0.427 ± 0.041.
On to “TTTTTTCATGATGCGCAGCATTTTTTTTTTTTTTTGCATT [TTACG]”, for which the background-corrected fluorescence reads like this: (dye: Cy3 (3' terminal)) 0.514 ± 0.018; (dye: Cy5 (3' terminal)) 0.395 ± 0.019.
Consider “TTTTTTCATGATGCGCATCATTTTTTTTTTTTTTTGCATG [GTACG]”, for which the background-corrected fluorescence (dye: Cy3 (3' terminal)) is 0.508 ± 0.023 and the background-corrected fluorescence (dye: Cy5 (3' terminal)) was 0.385 ± 0.023.
As for “TTTTTTCATGATGCGCATGATTTTTTTTTTTTTTTGCATC [CTACG]”, the background-corrected fluorescence is 0.441 ± 0.025 (dye: Cy3 (3' terminal)) and 0.288 ± 0.026 (dye: Cy5 (3' terminal)).
With “TTTTTTCATGATGCGCATGCTTTTTTTTTTTTTTTGCATA [ATACG]”, the background-corrected fluorescence reads like this: (dye: Cy3 (3' terminal)) 0.574 ± 0.02; (dye: Cy5 (3' terminal)) 0.431 ± 0.024.
In the same order, the values of “TTTTTTCATGATGCTCAGCATTTTTTTTTTTTTTTGCAGT [TGACG]” are 0.607 ± 0.021 and 0.51 ± 0.055.
Regarding “TTTTTTCATGATGCTCATCATTTTTTTTTTTTTTTGCAGG [GGACG]”, the background-corrected fluorescence was found to be 0.642 ± 0.025 (dye: Cy3 (3' terminal)) and 0.516 ± 0.039 (dye: Cy5 (3' terminal)).
In the same order, the values of “TTTTTTCATGATGCTCATGATTTTTTTTTTTTTTTGCAGC [CGACG]” are 0.508 ± 0.0059 and 0.402 ± 0.045.
As to “TTTTTTCATGATGCTCATGCTTTTTTTTTTTTTTTGCAGA [AGACG]”, the background-corrected fluorescence amounted to 0.682 ± 0.017 (dye: Cy3 (3' terminal)) and 0.552 ± 0.035 (dye: Cy5 (3' terminal)).
Taken in the same sequence, the figures for “TTTTTTCATGATGCTGAGCATTTTTTTTTTTTTTTGCACT [TCACG]” were 0.482 ± 0.048 and 0.339 ± 0.024.
As for “TTTTTTCATGATGCTGATCATTTTTTTTTTTTTTTGCACG”, the background-corrected fluorescence by setting is: (dye: Cy3 (3' terminal)) 0.548 ± 0.028; (dye: Cy5 (3' terminal)) 0.383 ± 0.035.
As to “TTTTTTCATGATGCTGATGATTTTTTTTTTTTTTTGCACC [CCACG]”, the background-corrected fluorescence came to 0.391 ± 0.024 (dye: Cy3 (3' terminal)) and 0.28 ± 0.022 (dye: Cy5 (3' terminal)).
Taken in the same sequence, the figures for “TTTTTTCATGATGCTGATGCTTTTTTTTTTTTTTTGCACA [ACACG]” were 0.483 ± 0.025 and 0.375 ± 0.026.
In the same order, the values of “TTTTTTCATGATGCTGCGCATTTTTTTTTTTTTTTGCAAT [TAACG]” are 0.53 ± 0.018 and 0.406 ± 0.027.
In the case of “TTTTTTCATGATGCTGCTCATTTTTTTTTTTTTTTGCAAG [GAACG]”, the background-corrected fluorescence is, setting by setting: (dye: Cy3 (3' terminal)) 0.503 ± 0.04; (dye: Cy5 (3' terminal)) 0.422 ± 0.029.
Take “TTTTTTCATGATGCTGCTGATTTTTTTTTTTTTTTGCAAC [CAACG]”: the background-corrected fluorescence by setting is: (dye: Cy3 (3' terminal)) 0.469 ± 0.014; (dye: Cy5 (3' terminal)) 0.319 ± 0.017.
As to “TTTTTTCATGATGCTGCTGCTTTTTTTTTTTTTTTGCAAA [AAACG]”, the background-corrected fluorescence by setting is: (dye: Cy3 (3' terminal)) 0.599 ± 0.028; (dye: Cy5 (3' terminal)) 0.497 ± 0.03.
Regarding “TTTTTTCATGCGCAGCAGCATTTTTTTTTTTTTTTGATTT [TTTAG]”, the background-corrected fluorescence stood at 0.531 ± 0.03 (dye: Cy3 (3' terminal)) and 0.383 ± 0.029 (dye: Cy5 (3' terminal)).
In the case of “TTTTTTCATGCGCAGCATCATTTTTTTTTTTTTTTGATTG [GTTAG]”, the background-corrected fluorescence came out at 0.543 ± 0.0077 (dye: Cy3 (3' terminal)) and 0.355 ± 0.024 (dye: Cy5 (3' terminal)).
Taken in the same sequence, the figures for “TTTTTTCATGCGCAGCATGATTTTTTTTTTTTTTTGATTC [CTTAG]” were 0.451 ± 0.026 and 0.317 ± 0.02.
For the sequence “TTTTTTCATGCGCAGCATGCTTTTTTTTTTTTTTTGATTA [ATTAG]”, the background-corrected fluorescence reads like this: (dye: Cy3 (3' terminal)) 0.547 ± 0.022; (dye: Cy5 (3' terminal)) 0.424 ± 0.034.
Turning to “TTTTTTCATGCGCATCAGCATTTTTTTTTTTTTTTGATGT [TGTAG]”, the background-corrected fluorescence by setting is: (dye: Cy3 (3' terminal)) 0.653 ± 0.025; (dye: Cy5 (3' terminal)) 0.478 ± 0.04.
“TTTTTTCATGCGCATCATCATTTTTTTTTTTTTTTGATGG [GGTAG]” yielded a background-corrected fluorescence (dye: Cy3 (3' terminal)) of 0.62 ± 0.012 and a background-corrected fluorescence (dye: Cy5 (3' terminal)) of 0.482 ± 0.024.
In the same order, the values of “TTTTTTCATGCGCATCATGATTTTTTTTTTTTTTTGATGC [CGTAG]” are 0.522 ± 0.031 and 0.425 ± 0.03.
For the sequence “TTTTTTCATGCGCATCATGCTTTTTTTTTTTTTTTGATGA [AGTAG]”, the background-corrected fluorescence is 0.653 ± 0.035 (dye: Cy3 (3' terminal)) and 0.518 ± 0.062 (dye: Cy5 (3' terminal)).
Consider “TTTTTTCATGCGCATGAGCATTTTTTTTTTTTTTTGATCT [TCTAG]”, for which the background-corrected fluorescence (dye: Cy3 (3' terminal)) was determined as 0.456 ± 0.055 and the background-corrected fluorescence (dye: Cy5 (3' terminal)) is 0.354 ± 0.017.
In the same order, the values of “TTTTTTCATGCGCATGATCATTTTTTTTTTTTTTTGATCG [GCTAG]” are 0.545 ± 0.016 and 0.41 ± 0.025.
With “TTTTTTCATGCGCATGATGATTTTTTTTTTTTTTTGATCC [CCTAG]”, the background-corrected fluorescence was found to be 0.398 ± 0.022 (dye: Cy3 (3' terminal)) and 0.294 ± 0.027 (dye: Cy5 (3' terminal)).
In the case of “TTTTTTCATGCGCATGATGCTTTTTTTTTTTTTTTGATCA [ACTAG]”, the background-corrected fluorescence is, setting by setting: (dye: Cy3 (3' terminal)) 0.535 ± 0.034; (dye: Cy5 (3' terminal)) 0.43 ± 0.022.
In the same order, the values of “TTTTTTCATGCGCATGCGCATTTTTTTTTTTTTTTGATAT [TATAG]” are 0.532 ± 0.024 and 0.382 ± 0.018.
Taken in the same sequence, the figures for “TTTTTTCATGCGCATGCTCATTTTTTTTTTTTTTTGATAG” were 0.526 ± 0.03 and 0.425 ± 0.049.
With “TTTTTTCATGCGCATGCTGATTTTTTTTTTTTTTTGATAC [CATAG]”, the background-corrected fluorescence is, setting by setting: (dye: Cy3 (3' terminal)) 0.448 ± 0.026; (dye: Cy5 (3' terminal)) 0.334 ± 0.024.
Taken in the same sequence, the figures for “TTTTTTCATGCGCATGCTGCTTTTTTTTTTTTTTTGATAA [AATAG]” were 0.587 ± 0.042 and 0.452 ± 0.031.
As for “TTTTTTCATGCTCAGCAGCATTTTTTTTTTTTTTTGAGTT”, the background-corrected fluorescence by setting is: (dye: Cy3 (3' terminal)) 0.621 ± 0.031; (dye: Cy5 (3' terminal)) 0.422 ± 0.024.
Taken in the same sequence, the figures for “TTTTTTCATGCTCAGCATCATTTTTTTTTTTTTTTGAGTG [GTGAG]” were 0.578 ± 0.031 and 0.445 ± 0.054.
Regarding “TTTTTTCATGCTCAGCATGATTTTTTTTTTTTTTTGAGTC [CTGAG]”, the background-corrected fluorescence was determined as 0.469 ± 0.015 (dye: Cy3 (3' terminal)) and 0.359 ± 0.017 (dye: Cy5 (3' terminal)).
Taken in the same sequence, the figures for “TTTTTTCATGCTCAGCATGCTTTTTTTTTTTTTTTGAGTA [ATGAG]” were 0.603 ± 0.026 and 0.486 ± 0.035.
Consider “TTTTTTCATGCTCATCAGCATTTTTTTTTTTTTTTGAGGT [TGGAG]”, for which the background-corrected fluorescence (dye: Cy3 (3' terminal)) was found to be 0.708 ± 0.038 and the background-corrected fluorescence (dye: Cy5 (3' terminal)) came to 0.56 ± 0.05.
Taken in the same sequence, the figures for “TTTTTTCATGCTCATCATCATTTTTTTTTTTTTTTGAGGG [GGGAG]” were 0.759 ± 0.02 and 0.553 ± 0.041.
Taken in the same sequence, the figures for “TTTTTTCATGCTCATCATGATTTTTTTTTTTTTTTGAGGC [CGGAG]” were 0.585 ± 0.015 and 0.465 ± 0.033.
Consider “TTTTTTCATGCTCATCATGCTTTTTTTTTTTTTTTGAGGA [AGGAG]”, for which the background-corrected fluorescence stood at 0.747 ± 0.023 (dye: Cy3 (3' terminal)) and 0.669 ± 0.059 (dye: Cy5 (3' terminal)).
Take “TTTTTTCATGCTCATGAGCATTTTTTTTTTTTTTTGAGCT [TCGAG]”: the background-corrected fluorescence (dye: Cy3 (3' terminal)) came to 0.559 ± 0.024 and the background-corrected fluorescence (dye: Cy5 (3' terminal)) was 0.41 ± 0.022.
For “TTTTTTCATGCTCATGATCATTTTTTTTTTTTTTTGAGCG [GCGAG]”, the background-corrected fluorescence (dye: Cy3 (3' terminal)) turned out to be 0.654 ± 0.03 and the background-corrected fluorescence (dye: Cy5 (3' terminal)) came out at 0.526 ± 0.059.
In the same order, the values of “TTTTTTCATGCTCATGATGATTTTTTTTTTTTTTTGAGCC [CCGAG]” are 0.425 ± 0.012 and 0.312 ± 0.029.
Taken in the same sequence, the figures for “TTTTTTCATGCTCATGATGCTTTTTTTTTTTTTTTGAGCA [ACGAG]” were 0.585 ± 0.025 and 0.43 ± 0.035.
Taken in the same sequence, the figures for “TTTTTTCATGCTCATGCGCATTTTTTTTTTTTTTTGAGAT [TAGAG]” were 0.578 ± 0.051 and 0.439 ± 0.023.
Consider “TTTTTTCATGCTCATGCTCATTTTTTTTTTTTTTTGAGAG”, for which the background-corrected fluorescence reads like this: (dye: Cy3 (3' terminal)) 0.6283 ± 0.0056; (dye: Cy5 (3' terminal)) 0.492 ± 0.024.
In the same order, the values of “TTTTTTCATGCTCATGCTGATTTTTTTTTTTTTTTGAGAC [CAGAG]” are 0.476 ± 0.015 and 0.357 ± 0.018.
Turning to “TTTTTTCATGCTCATGCTGCTTTTTTTTTTTTTTTGAGAA [AAGAG]”, the background-corrected fluorescence was 0.645 ± 0.032 (dye: Cy3 (3' terminal)) and 0.513 ± 0.026 (dye: Cy5 (3' terminal)).
Taken in the same sequence, the figures for “TTTTTTCATGCTGAGCAGCATTTTTTTTTTTTTTTGACTT [TTCAG]” were 0.501 ± 0.016 and 0.401 ± 0.021.
In the case of “TTTTTTCATGCTGAGCATCATTTTTTTTTTTTTTTGACTG [GTCAG]”, the background-corrected fluorescence runs as follows: (dye: Cy3 (3' terminal)) 0.511 ± 0.03; (dye: Cy5 (3' terminal)) 0.39 ± 0.032.
Regarding “TTTTTTCATGCTGAGCATGATTTTTTTTTTTTTTTGACTC [CTCAG]”, the background-corrected fluorescence is, setting by setting: (dye: Cy3 (3' terminal)) 0.419 ± 0.021; (dye: Cy5 (3' terminal)) 0.317 ± 0.028.
In the same order, the values of “TTTTTTCATGCTGAGCATGCTTTTTTTTTTTTTTTGACTA [ATCAG]” are 0.491 ± 0.021 and 0.416 ± 0.029.
With “TTTTTTCATGCTGATCAGCATTTTTTTTTTTTTTTGACGT [TGCAG]”, the background-corrected fluorescence is, setting by setting: (dye: Cy3 (3' terminal)) 0.601 ± 0.016; (dye: Cy5 (3' terminal)) 0.474 ± 0.028.
Take “TTTTTTCATGCTGATCATCATTTTTTTTTTTTTTTGACGG [GGCAG]”: the background-corrected fluorescence is, setting by setting: (dye: Cy3 (3' terminal)) 0.65 ± 0.026; (dye: Cy5 (3' terminal)) 0.585 ± 0.076.
Taken in the same sequence, the figures for “TTTTTTCATGCTGATCATGATTTTTTTTTTTTTTTGACGC [CGCAG]” were 0.577 ± 0.062 and 0.462 ± 0.065.
Taken in the same sequence, the figures for “TTTTTTCATGCTGATCATGCTTTTTTTTTTTTTTTGACGA [AGCAG]” were 0.642 ± 0.026 and 0.52 ± 0.025.
